Assay results from IntAct's records for PubMed 20498078.

Columns and labels:
[1] = molecular target: pcd15_mouse Pcdh15 (UniProt Q99PJ1)
[2] = molecular target: Cdh23, Q99PF4-1

Sequence of pcd15_mouse Pcdh15 (Q99PJ1 whole entry): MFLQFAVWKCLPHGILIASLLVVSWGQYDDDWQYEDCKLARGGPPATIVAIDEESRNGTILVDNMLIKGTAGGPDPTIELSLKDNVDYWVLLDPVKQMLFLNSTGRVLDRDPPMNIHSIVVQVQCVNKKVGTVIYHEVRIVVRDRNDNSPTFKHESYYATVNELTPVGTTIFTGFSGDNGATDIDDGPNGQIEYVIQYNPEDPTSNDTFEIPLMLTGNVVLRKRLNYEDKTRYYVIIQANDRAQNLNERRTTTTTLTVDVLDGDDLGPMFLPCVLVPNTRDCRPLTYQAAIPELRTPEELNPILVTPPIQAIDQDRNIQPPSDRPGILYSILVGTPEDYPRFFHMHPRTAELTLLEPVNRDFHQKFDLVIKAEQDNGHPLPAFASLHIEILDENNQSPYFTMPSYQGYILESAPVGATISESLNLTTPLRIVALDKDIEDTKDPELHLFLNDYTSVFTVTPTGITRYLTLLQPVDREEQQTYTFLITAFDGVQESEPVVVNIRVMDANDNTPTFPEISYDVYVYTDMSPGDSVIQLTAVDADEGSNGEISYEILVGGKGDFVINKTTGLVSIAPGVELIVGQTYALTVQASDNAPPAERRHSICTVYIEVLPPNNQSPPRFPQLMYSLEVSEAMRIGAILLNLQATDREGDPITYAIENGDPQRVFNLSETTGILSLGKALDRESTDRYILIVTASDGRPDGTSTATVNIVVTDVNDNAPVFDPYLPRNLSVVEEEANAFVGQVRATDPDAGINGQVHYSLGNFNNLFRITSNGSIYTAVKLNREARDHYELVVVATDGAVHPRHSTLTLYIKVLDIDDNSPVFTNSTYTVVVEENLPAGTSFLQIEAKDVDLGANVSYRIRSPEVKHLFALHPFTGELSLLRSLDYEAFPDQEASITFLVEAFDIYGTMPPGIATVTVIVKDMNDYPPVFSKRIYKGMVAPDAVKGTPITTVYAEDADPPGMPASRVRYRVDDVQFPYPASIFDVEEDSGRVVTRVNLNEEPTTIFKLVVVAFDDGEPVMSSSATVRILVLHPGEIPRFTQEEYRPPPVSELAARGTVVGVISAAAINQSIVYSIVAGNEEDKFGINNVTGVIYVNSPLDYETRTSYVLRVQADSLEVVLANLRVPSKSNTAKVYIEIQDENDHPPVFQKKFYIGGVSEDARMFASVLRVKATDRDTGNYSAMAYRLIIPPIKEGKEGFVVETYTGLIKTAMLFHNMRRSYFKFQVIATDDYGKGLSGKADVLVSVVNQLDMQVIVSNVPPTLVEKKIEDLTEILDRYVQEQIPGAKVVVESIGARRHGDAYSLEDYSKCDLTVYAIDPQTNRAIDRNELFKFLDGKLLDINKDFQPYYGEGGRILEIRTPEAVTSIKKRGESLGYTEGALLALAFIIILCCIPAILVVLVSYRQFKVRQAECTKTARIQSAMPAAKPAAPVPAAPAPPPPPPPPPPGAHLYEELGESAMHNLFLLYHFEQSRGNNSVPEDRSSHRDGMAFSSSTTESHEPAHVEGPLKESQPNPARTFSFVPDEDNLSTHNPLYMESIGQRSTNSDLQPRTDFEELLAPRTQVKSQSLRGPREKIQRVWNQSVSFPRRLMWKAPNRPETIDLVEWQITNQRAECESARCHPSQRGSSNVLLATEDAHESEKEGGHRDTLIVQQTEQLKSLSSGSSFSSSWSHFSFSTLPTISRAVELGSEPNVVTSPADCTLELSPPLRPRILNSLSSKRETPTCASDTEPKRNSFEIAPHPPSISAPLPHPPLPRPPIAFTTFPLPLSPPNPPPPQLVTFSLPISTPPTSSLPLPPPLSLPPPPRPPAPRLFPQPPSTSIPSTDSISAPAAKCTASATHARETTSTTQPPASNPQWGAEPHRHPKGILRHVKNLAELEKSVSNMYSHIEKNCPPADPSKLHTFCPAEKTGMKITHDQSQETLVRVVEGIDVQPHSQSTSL

effect of a mutation on the interaction [1]	effect of a mutation on the interaction [2]	Substance
decreasing interaction	–	Cadherin-23 (Mus musculus), Q99PF4-1 N26I;R27I
–	decreasing interaction	Protocadherin-15 (Mus musculus), Q99PJ1 E35I;D36A
decreasing interaction	–	Cadherin-23 (Mus musculus), Q99PF4-1 R27I
decreasing interaction	–	Cadherin-23 (Mus musculus), Q99PF4-1 N26I
